# Patent US11787850B2, “Peptidic TGF-beta antagonists” (priority 2015, dated 2023)
# Assay: Size-exclusion chromatography on Superdex Peptide 10/300GL column
# Type: physicochemical
# Settings: for formation of aggregates by size-exclusion chromatography: peptide in PBS, Superdex Peptide 10/300GL, 0.6 ml/min; for Aggregation?: size-exclusion chromatography, peptide dissolved in PBS
# Experimental: Approximately 200 μg of each peptide X (40 amino acids), X-1 (28 amino acids), peptide A (161 amino acids), P11 (11 amino acids), P16 (16 amino acids), P21 (21 amino acids, P16-2 (16 amino acids, scrambled sequence control), X-3 (16 amino acids) and X-4 (11 amino acids) were dissolved in phosphate-buffered saline (PBS) and loaded onto a Superdex Peptide 10/300GL column. The column was eluted with PBS at a flow rate of 0.6 mL/min and eluents were analyzed for peptide content by measuring relative absorbance at a wavelength of 215 nm. (FIGS. 3A and 3B) The data is plotted with relative absorbance (Y-axis) against elution volume (X-axis). Peptides 1-9 are color coded (A—peptides (1) to (5); B (peptides (6) to (9)). As shown on panel A, peptide X (peptide 1, black line) elution profile indicated two major peaks at approximately 8 mL and 11 mL which correspond to molecular weights greater than 12.4 kDa. The theoretical molecular weight of peptide X is 4.7 kDa which is expected to elute from the column at approximately 15 mL. Under the conditions tested, peptide X existed as high molecular weight aggregates with minimal soluble (monomeric) form. On the other hand, P16 (peptide 5, green line) elution profile indicated a broad peak between 14-22 mL which is expected to contain peptides of between 0.1 and 6 kDa and is consistent with its theoretical molecular weight of 2.01 kDa.
# FIG. 4 illustrates the standard curve used for size-exclusion chromatography of standard peptides using the Superdex Peptide 10/300 GL column (results provided in FIG. 3). A pool of standard peptides of various molecular weights (1. cytochrome c (Mr 12.384 kDa) 1 mg/mL; 2. aprotinin (Mr 6.512 kDa) 2 mg/mL; 3. vitamin B12 (Mr 1.355 kDa) 0.1 mg/mL; 4. (Gly)3 (Mr 0.189 kDa) 0.1 mg/mL; 5. Gly (Mr 0.075 kDa) 7.8 mg/mL) were subjected to size-exclusion chromatography using the Superdex Peptide 10/300 GL column (flow rate 0.5 ml/min at room temperature, sample volume of 50 μL, eluent 0.05M phosphate, 0.15 M NaCl, ph 7.0). The resulting chromatogram (absorbance at 215 nm (in mAU, left Y axis) and conductivity (in mS/cm, right Y axis, in function of volume of elution (in mL)) indicates the elution profiles of the above peptides with high MW peptides eluting in earlier fractions and lower MW peptides eluting in later fractions as expected. The molecular weights of peptides were plotted against elution volume generating a standard curve (not shown).
# More specifically, approximately […] of each peptide X (40 amino acids), X-1 (28 amino acids), peptide A (161 amino acids), P11 (11 amino acids), P16 (16 amino acids), P21 (21 amino acids, P16-2 (16 amino acids, scrambled sequence control), X-3 (16 amino acids) and X-4 (11 amino acids) were dissolved in phosphate-buffered saline (PBS) and loaded onto a Superdex Peptide 10/300GL column. The column was eluted with PBS at a flow rate of 0.6 ml/min and eluants were analyzed for peptide content by measuring relative absorbance at a wavelength of 215 nm. The data were plotted with relative absorbance (Y-axis) against elution volume (X-axis). […] The theoretical molecular weight of peptide X is 4.7 kDa which is expected to elute from the column at approximately 15 mL. […] P16 (peptide 5) elution profile indicated a peak between 14-22 mL which was expected to contain peptides of between 0.1 and 6 kDa and is consistent with its theoretical molecular weight of 2.01 kDa.
# More specifically, a pool of standard proteins of various molecular weights were subjected to size-exclusion chromatography using the Superdex Peptide 10/300 GL column. The resulting chromatogram indicated the elution profiles of the peptides with high molecular weight peptides eluting in earlier fractions and lower molecular weight peptides eluting in later fractions as expected. The molecular weights of peptides were plotted against elution volume generating a standard curve (not shown) and was used to calculate molecular weights of the CD109-based peptides. […]
Sequence,formation of aggregates by size-exclusion chromatography,Aggregation?,"molecular weights corresponding to the elution peaks (PBS, theoretical MW peptide X 4.7 kDa, P16 2.01 kDa)"
ETWIWLDTNMGSRIYQ [Peptide P16],did not,Not aggregated,–
LGSSPHVRKHFPETWIWLDTNMGSRIYQEFEVTVPDSITS (Peptide X),formed aggregates,Aggregated,greater than 12.4 kDa
